T1: FcγRIIb extracellular domain with C-terminal His tag (human, UniProt P31994 43-217)
T1 construct: extracellular domain; expressed in FreeStyle293 cells; analyte in the Biacore assay; also called FcgRIIb; 2b; not shown: His tag at the C terminus
T1 sequence (looked up): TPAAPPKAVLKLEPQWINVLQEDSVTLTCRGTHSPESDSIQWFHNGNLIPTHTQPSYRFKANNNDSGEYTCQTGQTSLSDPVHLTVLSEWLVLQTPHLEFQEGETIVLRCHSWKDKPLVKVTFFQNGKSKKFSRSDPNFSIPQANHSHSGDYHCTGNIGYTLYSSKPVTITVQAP

B1: GpH7-B3 variant A330_08L/GpL16-k0 (antibody, human IgG1, kappa)
heavy: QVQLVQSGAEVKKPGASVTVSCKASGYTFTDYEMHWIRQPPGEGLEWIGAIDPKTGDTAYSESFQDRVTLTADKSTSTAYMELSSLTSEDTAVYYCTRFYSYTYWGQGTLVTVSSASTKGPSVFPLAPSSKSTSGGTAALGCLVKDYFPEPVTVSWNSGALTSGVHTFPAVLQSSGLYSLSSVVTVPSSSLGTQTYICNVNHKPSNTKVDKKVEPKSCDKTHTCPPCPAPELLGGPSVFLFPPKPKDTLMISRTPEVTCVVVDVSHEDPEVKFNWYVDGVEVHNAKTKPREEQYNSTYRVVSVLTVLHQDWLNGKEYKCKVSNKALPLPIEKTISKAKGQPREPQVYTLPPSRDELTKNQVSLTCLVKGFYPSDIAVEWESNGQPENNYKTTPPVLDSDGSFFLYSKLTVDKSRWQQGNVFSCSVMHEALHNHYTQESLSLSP
light: DIVMTQSPLSLPVTPGEPASISCQASESLVHSNRNTYLHWYLQKPGQSPQLLIYKVSNRFSGVPDRFSGSGSGTDFTLKISRVEAEDVGVYYCSQNTHVPPTFGQGTKVEIERTVAAPSVFIFPPSDEQLKSGTASVVCLLNNFYPREAKVQWKVDNALQSGNSQESVTEQDSKDSTYSLSSTLTLSKADYEKHKVYACEVTHQGLSSPVTKSFNRGEC
notes: homodimerized IgG1, mutation in both H chains; also called Ho Ab
B2: GpH7-B3 variant K326_09D/GpL16-k0 (antibody, human IgG1, kappa)
heavy: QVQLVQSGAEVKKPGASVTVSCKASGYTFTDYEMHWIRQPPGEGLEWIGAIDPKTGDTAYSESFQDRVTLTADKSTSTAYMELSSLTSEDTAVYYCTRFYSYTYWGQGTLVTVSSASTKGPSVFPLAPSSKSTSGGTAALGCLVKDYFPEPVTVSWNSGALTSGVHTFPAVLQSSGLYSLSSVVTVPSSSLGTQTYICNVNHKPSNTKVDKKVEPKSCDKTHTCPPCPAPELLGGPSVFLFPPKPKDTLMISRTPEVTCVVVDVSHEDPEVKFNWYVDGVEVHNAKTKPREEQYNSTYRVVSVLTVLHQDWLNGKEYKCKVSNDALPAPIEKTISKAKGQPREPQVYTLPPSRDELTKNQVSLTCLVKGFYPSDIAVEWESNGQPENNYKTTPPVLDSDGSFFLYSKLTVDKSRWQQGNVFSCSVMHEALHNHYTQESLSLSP
light: B1 light
notes: as for B1
B3: GpH7-B3 variant I332_10E/GpL16-k0 (antibody, human IgG1, kappa)
heavy: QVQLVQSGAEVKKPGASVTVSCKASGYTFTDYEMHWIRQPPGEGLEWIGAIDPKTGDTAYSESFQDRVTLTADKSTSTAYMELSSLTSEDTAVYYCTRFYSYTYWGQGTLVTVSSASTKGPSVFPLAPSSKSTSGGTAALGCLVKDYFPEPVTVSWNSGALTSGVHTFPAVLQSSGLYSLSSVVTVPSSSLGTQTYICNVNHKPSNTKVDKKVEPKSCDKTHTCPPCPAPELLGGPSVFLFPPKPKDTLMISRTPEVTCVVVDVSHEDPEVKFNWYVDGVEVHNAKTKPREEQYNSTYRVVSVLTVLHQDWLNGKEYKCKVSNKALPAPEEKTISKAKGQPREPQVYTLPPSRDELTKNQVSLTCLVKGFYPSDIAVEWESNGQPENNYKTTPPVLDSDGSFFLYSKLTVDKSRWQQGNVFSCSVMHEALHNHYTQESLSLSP
light: B1 light
notes: as for B1
B4: GpH7-B3 variant K326_03V/GpL16-k0 (antibody, human IgG1, kappa)
heavy: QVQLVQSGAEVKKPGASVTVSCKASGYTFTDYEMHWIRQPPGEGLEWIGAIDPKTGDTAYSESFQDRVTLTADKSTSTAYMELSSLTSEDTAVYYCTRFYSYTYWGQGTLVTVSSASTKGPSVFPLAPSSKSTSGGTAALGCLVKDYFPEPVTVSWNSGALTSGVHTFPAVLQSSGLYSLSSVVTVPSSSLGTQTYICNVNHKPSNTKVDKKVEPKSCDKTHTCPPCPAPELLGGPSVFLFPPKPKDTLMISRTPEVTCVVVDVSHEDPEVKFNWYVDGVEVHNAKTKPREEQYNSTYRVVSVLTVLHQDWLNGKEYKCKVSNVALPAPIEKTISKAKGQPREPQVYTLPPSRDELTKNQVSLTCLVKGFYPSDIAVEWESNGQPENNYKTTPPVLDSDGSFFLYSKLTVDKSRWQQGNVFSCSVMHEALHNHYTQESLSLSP
light: B1 light
notes: as for B1
B5: GpH7-B3 variant I336_10E/GpL16-k0 (antibody, human IgG1, kappa)
heavy: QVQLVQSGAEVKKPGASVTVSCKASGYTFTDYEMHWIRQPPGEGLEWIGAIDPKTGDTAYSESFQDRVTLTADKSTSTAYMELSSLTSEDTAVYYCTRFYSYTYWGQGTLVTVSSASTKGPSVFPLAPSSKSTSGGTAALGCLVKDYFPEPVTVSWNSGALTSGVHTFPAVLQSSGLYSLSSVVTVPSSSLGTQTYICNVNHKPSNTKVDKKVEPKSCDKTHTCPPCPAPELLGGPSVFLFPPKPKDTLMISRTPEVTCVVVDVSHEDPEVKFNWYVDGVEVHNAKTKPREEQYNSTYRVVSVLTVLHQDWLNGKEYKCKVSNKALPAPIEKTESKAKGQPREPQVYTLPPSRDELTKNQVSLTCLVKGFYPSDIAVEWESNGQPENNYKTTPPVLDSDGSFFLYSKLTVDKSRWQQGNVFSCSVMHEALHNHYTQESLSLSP
light: B1 light
notes: as for B1
B6: GpH7-B3 variant K326_06M/GpL16-k0 (antibody, human IgG1, kappa)
heavy: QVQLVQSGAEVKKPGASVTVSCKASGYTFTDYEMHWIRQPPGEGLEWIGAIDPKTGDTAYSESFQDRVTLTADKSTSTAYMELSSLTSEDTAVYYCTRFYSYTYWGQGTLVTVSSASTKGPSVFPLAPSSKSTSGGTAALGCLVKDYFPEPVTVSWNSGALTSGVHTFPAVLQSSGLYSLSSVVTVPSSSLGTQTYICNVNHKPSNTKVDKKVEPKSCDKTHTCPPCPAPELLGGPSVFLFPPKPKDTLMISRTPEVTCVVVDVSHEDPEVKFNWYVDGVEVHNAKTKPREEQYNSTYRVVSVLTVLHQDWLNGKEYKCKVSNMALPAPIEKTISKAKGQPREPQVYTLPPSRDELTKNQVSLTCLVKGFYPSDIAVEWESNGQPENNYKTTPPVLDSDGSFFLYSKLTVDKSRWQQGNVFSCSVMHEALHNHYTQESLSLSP
light: B1 light
notes: as for B1
B7: GpH7-B3 variant I336_09D/GpL16-k0 (antibody, human IgG1, kappa)
heavy: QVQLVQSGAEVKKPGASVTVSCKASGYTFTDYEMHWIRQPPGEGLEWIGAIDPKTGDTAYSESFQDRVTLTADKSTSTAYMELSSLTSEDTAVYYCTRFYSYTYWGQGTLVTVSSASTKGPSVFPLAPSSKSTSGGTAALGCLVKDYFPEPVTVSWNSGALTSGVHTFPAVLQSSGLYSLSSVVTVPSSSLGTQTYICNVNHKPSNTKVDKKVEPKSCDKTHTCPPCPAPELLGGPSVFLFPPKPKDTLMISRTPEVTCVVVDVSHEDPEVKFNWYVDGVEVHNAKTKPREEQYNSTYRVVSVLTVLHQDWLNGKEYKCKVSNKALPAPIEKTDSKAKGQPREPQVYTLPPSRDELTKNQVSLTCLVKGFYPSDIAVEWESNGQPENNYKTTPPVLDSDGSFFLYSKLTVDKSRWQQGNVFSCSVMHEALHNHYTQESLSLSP
light: B1 light
notes: as for B1
B8: GpH7-A5/GpH7-B3 variant K334_13S/GpL16-k0 (antibody, human IgG1, kappa)
heavy 1: not shown
heavy 2: not shown
light: B1 light
notes: heterodimerized; mutation in the B3 H chain only; also called He Ab K334_13S
B9: GpH7-A5/GpH7-B3 variant P238_09D/GpL16-k0 (antibody, human IgG1, kappa)
heavy 1: not shown
heavy 2: not shown
light: B1 light
notes: heterodimerized; mutation in the B3 H chain only; also called He Ab P238_09D
B10: GpH7-A5/GpH7-B3 variant S239_10E/GpL16-k0 (antibody, human IgG1, kappa)
heavy 1: not shown
heavy 2: not shown
light: B1 light
notes: heterodimerized; mutation in the B3 H chain only; also called He Ab S239_10E
B11: GpH7-A5/GpH7-B3 variant S337_16H/GpL16-k0 (antibody, human IgG1, kappa)
heavy 1: not shown
heavy 2: not shown
light: B1 light
notes: heterodimerized; mutation in the B3 H chain only; also called He Ab S337_16H
B12: GpH7-A5/GpH7-B3 variant P238_04F/GpL16-k0 (antibody, human IgG1, kappa)
heavy 1: not shown
heavy 2: not shown
light: B1 light
notes: heterodimerized; mutation in the B3 H chain only; also called He Ab P238_04F
B13: GpH7-A5/GpH7-B3 variant S239_03V/GpL16-k0 (antibody, human IgG1, kappa)
heavy 1: not shown
heavy 2: not shown
light: B1 light
notes: heterodimerized; mutation in the B3 H chain only; also called He Ab S239_03V
B14: GpH7-A5/GpH7-B3 variant P331_15Y/GpL16-k0 (antibody, human IgG1, kappa)
heavy 1: not shown
heavy 2: not shown
light: B1 light
notes: heterodimerized; mutation in the B3 H chain only; also called He Ab P331_15Y
B15: GpH7-A5/GpH7-B3 variant T335_07I/GpL16-k0 (antibody, human IgG1, kappa)
heavy 1: not shown
heavy 2: not shown
light: B1 light
notes: heterodimerized; mutation in the B3 H chain only; also called He Ab T335_07I
B16: GpH7-A5/GpH7-B3 variant Y296_20W/GpL16-k0 (antibody, human IgG1, kappa)
heavy 1: not shown
heavy 2: not shown
light: B1 light
notes: heterodimerized; mutation in the B3 H chain only; also called He Ab Y296_20W
B17: GpH7-A5/GpH7-B3 variant L328_13S/GpL16-k0 (antibody, human IgG1, kappa)
heavy 1: not shown
heavy 2: not shown
light: B1 light
notes: heterodimerized; mutation in the B3 H chain only; also called He Ab L328_13S
B18: GpH7-A5/GpH7-B3 variant S267_19Q/GpL16-k0 (antibody, human IgG1, kappa)
heavy 1: not shown
heavy 2: not shown
light: B1 light
notes: heterodimerized; mutation in the B3 H chain only; also called He Ab S267_19Q
B19: GpH7-A5/GpH7-B3 variant P238_15Y/GpL16-k0 (antibody, human IgG1, kappa)
heavy 1: not shown
heavy 2: not shown
light: B1 light
notes: heterodimerized; mutation in the B3 H chain only; also called He Ab P238_15Y
B20: GpH7-A5/GpH7-B3 variant V266_06M/GpL16-k0 (antibody, human IgG1, kappa)
heavy 1: not shown
heavy 2: not shown
light: B1 light
notes: heterodimerized; mutation in the B3 H chain only; also called He Ab V266_06M
B21: GpH7-A5/GpH7-B3 variant T335_15Y/GpL16-k0 (antibody, human IgG1, kappa)
heavy 1: not shown
heavy 2: not shown
light: B1 light
notes: heterodimerized; mutation in the B3 H chain only; also called He Ab T335_15Y
B22: GpH7-A5/GpH7-B3 variant L235_20W/GpL16-k0 (antibody, human IgG1, kappa)
heavy 1: not shown
heavy 2: not shown
light: B1 light
notes: heterodimerized; mutation in the B3 H chain only; also called He Ab L235_20W
B23: GpH7-A5/GpH7-B3 variant L328_02A/GpL16-k0 (antibody, human IgG1, kappa)
heavy 1: not shown
heavy 2: not shown
light: B1 light
notes: heterodimerized; mutation in the B3 H chain only; also called He Ab L328_02A
B24: GpH7-A5/GpH7-B3 variant S324_06M/GpL16-k0 (antibody, human IgG1, kappa)
heavy 1: not shown
heavy 2: not shown
light: B1 light
notes: heterodimerized; mutation in the B3 H chain only; also called He Ab S324_06M
B25: GpH7-A5/GpH7-B3 variant P331_16H/GpL16-k0 (antibody, human IgG1, kappa)
heavy 1: not shown
heavy 2: not shown
light: B1 light
notes: heterodimerized; mutation in the B3 H chain only; also called He Ab P331_16H
B26: GpH7-A5/GpH7-B3 variant P331_20W/GpL16-k0 (antibody, human IgG1, kappa)
heavy 1: not shown
heavy 2: not shown
light: B1 light
notes: heterodimerized; mutation in the B3 H chain only; also called He Ab P331_20W
B27: GpH7-A5/GpH7-B3 variant S267_06M/GpL16-k0 (antibody, human IgG1, kappa)
heavy 1: not shown
heavy 2: not shown
light: B1 light
notes: heterodimerized; mutation in the B3 H chain only; also called He Ab S267_06M
B28: GpH7-A5/GpH7-B3 variant K334_14T/GpL16-k0 (antibody, human IgG1, kappa)
heavy 1: not shown
heavy 2: not shown
light: B1 light
notes: heterodimerized; mutation in the B3 H chain only; also called He Ab K334_14T
B29: GpH7-A5/GpH7-B3 variant T335_10E/GpL16-k0 (antibody, human IgG1, kappa)
heavy 1: not shown
heavy 2: not shown
light: B1 light
notes: heterodimerized; mutation in the B3 H chain only; also called He Ab T335_10E

What follows are binders tested against T2, FcγRIIIa extracellular domain with C-terminal His tag (human, UniProt P08637 17-208) (assay: SPR, relative to GpH7-B3/GpL16-k0).
T2 construct: extracellular domain; also called FcgRIIIa; 3a
T2 sequence (P08637 17-208): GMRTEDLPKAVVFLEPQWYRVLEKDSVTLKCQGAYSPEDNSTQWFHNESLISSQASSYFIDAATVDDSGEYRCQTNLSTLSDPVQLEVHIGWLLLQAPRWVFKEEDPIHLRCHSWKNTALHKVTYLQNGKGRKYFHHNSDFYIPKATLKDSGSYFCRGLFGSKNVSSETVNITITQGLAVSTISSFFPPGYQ

Ho/Con_3a	Binder
138 % of control (=100)	B1
163 % of control (=100)	B2
278 % of control (=100)	B3
137 % of control (=100)	B4
130 % of control (=100)	B5
129 % of control (=100)	B6
111 % of control (=100)	B7

What follows are binders tested against T1, FcγRIIb extracellular domain with … (assay: SPR (Biacore), captured antibody, FcγRIIb analyte; binding relative to GpH7-A5/GpH7-B3/GpL16-k0 = 100).

He/Con_2b	Binder
111 % of control	B8
221 % of control	B9
181 % of control	B10
105 % of control	B11
312 % of control	B12
108 % of control	B13
114 % of control	B14
106 % of control	B15
103 % of control	B16
149 % of control	B17
218 % of control	B18
218 % of control	B19
251 % of control	B20
108 % of control	B21
147 % of control	B22
144 % of control	B23
112 % of control	B24
116 % of control	B25
111 % of control	B26
210 % of control	B27
115 % of control	B28
108 % of control	B29

Source: US20180155451A1 (published 2018)
